This is an account of results in the supplement of paper PMC10567573.

A short description of this series: protein stability index of a GFP-peptide fusion (GPS, HEK-293T) (PSI 1-6); higher = more stable. As to conditions: c terminus: a fixed tail appended.

± gives the standard deviation.
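Note: 24-mer peptide tiles fused after GFP, lentivirally expressed, FACS-sorted into six equal bins by GFP/DsRed ratio, decoded by Illumina sequencing, PSI is the read-weighted mean bin number.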

As for QNPRQVAQSEAEKKLKKDDKKKEL [ZC3H15], the protein stability index amounted to 5.52 ± 0.22 (treatment: DMSO) and 5.58 ± 0.19 (treatment: MLN4924 1 uM, 8 h).

Turning to QPPLTYKRFQTLISKMEPLEIPVE [CRY1], the protein stability index is, setting by setting: (treatment: DMSO) 2.97 ± 0.39; (treatment: MLN4924 1 uM, 8 h) 2.79 ± 0.34.

As to QPPQSQAQVPPAAPHHHHHHSHSG [PLK2], the protein stability index by setting is: (treatment: DMSO) 4.71 ± 0.2; (treatment: MLN4924 1 uM, 8 h) 4.64 ± 0.13.

For QPQALLVDGDQSKILISGLEPSTP [TNXB], the protein stability index runs as follows: (treatment: DMSO) 4.73 ± 0.31; (treatment: MLN4924 1 uM, 8 h) 4.69 ± 0.23.

Take QPTIVEALLGYEMVQVACGASHVL [NEK8]: the protein stability index amounted to 2.75 ± 0.45 (treatment: DMSO) and 2.74 ± 0.7 (treatment: MLN4924 1 uM, 8 h).

Take QQIQGLISSIEAQLSELRSEMECQ [KRT13]: the protein stability index runs as follows: (treatment: DMSO) 3.6 ± 0.14; (treatment: MLN4924 1 uM, 8 h) 3.44 ± 0.5.

For QSFIIPLERYVASLMPLQKSISPW [DENND6A], the protein stability index runs as follows: (treatment: DMSO) 2.25 ± 0.04; (treatment: MLN4924 1 uM, 8 h) 2.46 ± 0.56.

Turning to QVYKETRLFLDGEEEKEWAFEESK [AASDHPPT], the protein stability index runs as follows: (treatment: DMSO) 4.56 ± 0.26; (treatment: MLN4924 1 uM, 8 h) 4.74 ± 0.15.

As for RAAAQQRRSFLNAHHRSGAQVFPE [GNAS], the protein stability index reads like this: (treatment: DMSO) 3.53 ± 0.12; (treatment: MLN4924 1 uM, 8 h) 3.5 ± 0.23.

Take RAALISRRHLQFWKSHLKKVQKPL [RHOBTB1]: the protein stability index (treatment: DMSO) came out at 2.22 ± 0.16 and the protein stability index (treatment: MLN4924 1 uM, 8 h) stood at 2.54 ± 0.34.

As for RAGGGGGGDYGLVTAGCGFGKDFR [PPTC7], the protein stability index by setting is: (treatment: DMSO) 3.33 ± 0.51; (treatment: MLN4924 1 uM, 8 h) 3.13 ± 0.21.

Consider RAVVEAVHRLDLILCNKTAYQEVF [SMG5], for which the protein stability index stood at 2.92 ± 0.43 (treatment: DMSO) and 2.92 ± 0.85 (treatment: MLN4924 1 uM, 8 h).

With RCGVPDVAQFVLTEGNPRWEQTHL [MMP1], the protein stability index is, setting by setting: (treatment: DMSO) 2.42 ± 0.4; (treatment: MLN4924 1 uM, 8 h) 2.3 ± 0.24.

In turn, RDCLVLNQGYLSEAGASLVDQKLE [PI4K2A] gave a protein stability index (treatment: DMSO) of 4.29 ± 0.28 and a protein stability index (treatment: MLN4924 1 uM, 8 h) of 4.54 ± 0.11.

Consider RDDLDRLGVFLDYEAGVLAFYDVT [TRIM14], for which the protein stability index is, setting by setting: (treatment: DMSO) 2.55 ± 0.31; (treatment: MLN4924 1 uM, 8 h) 2.06 ± 0.53.

For the sequence RDLAARWKKLVLVDRNTRPGPQDP [ELOA2], the protein stability index runs as follows: (treatment: DMSO) 3.38 ± 0.19; (treatment: MLN4924 1 uM, 8 h) 3.49 ± 0.23.

In the case of REAEKQNYLAEHCPPLHIPGSMSE [TNNI2], the protein stability index was 4.67 ± 0.25 (treatment: DMSO) and 4.72 ± 0.31 (treatment: MLN4924 1 uM, 8 h).

With REDDKLVVECVMKGVTSTRVYERA [FABP4], the protein stability index worked out at 3.68 ± 0.38 (treatment: DMSO) and 4.09 ± 0.29 (treatment: MLN4924 1 uM, 8 h).

As to REIARYLLEQGAQVNRRSAKGNTA [FEM1A], the protein stability index came to 3.29 ± 0.12 (treatment: DMSO) and 3.54 ± 0.31 (treatment: MLN4924 1 uM, 8 h).

Take RFCSEIKSSKYGEGHQAWIVGIVE [SEPHS2]: the protein stability index stood at 2.23 ± 0.21 (treatment: DMSO) and 2.12 ± 0.37 (treatment: MLN4924 1 uM, 8 h).

With RGAPAVQQNIPSTLLQDHENQRLF [WAS], the protein stability index runs as follows: (treatment: DMSO) 4.25 ± 0.2; (treatment: MLN4924 1 uM, 8 h) 4.29 ± 0.15.

Turning to RGGMGSGGLATGIAGGLAGMGGIQ [KRT18], the protein stability index is 3.61 ± 0.18 (treatment: DMSO) and 3.38 ± 0.23 (treatment: MLN4924 1 uM, 8 h).

Regarding RGGRQKYKRRIDAENSPYLNPQLV [ESRRG], the protein stability index reads like this: (treatment: DMSO) 3.59 ± 0.25; (treatment: MLN4924 1 uM, 8 h) 3.93 ± 0.21.

Turning to RGHQNWVYSCAFSPDSSMLCSVGA [WSB1], the protein stability index by setting is: (treatment: DMSO) 2.07 ± 0.18; (treatment: MLN4924 1 uM, 8 h) 2.03 ± 0.23.

Take RGNLSILAAVLVEPKLHTPMYFFL [OR3A1]: the protein stability index was determined as 2.86 ± 0.46 (treatment: DMSO) and 3.06 ± 0.57 (treatment: MLN4924 1 uM, 8 h).

Take RGTQYSSLDSLDGLSLTDESDSCV [PSD2]: the protein stability index was determined as 5.26 ± 0.22 (treatment: DMSO) and 5.3 ± 0.14 (treatment: MLN4924 1 uM, 8 h).

With RGTYEQDGRFEKRQGNPSWKKQQK [ZNF396], the protein stability index came to 4.63 ± 0.34 (treatment: DMSO) and 4.72 ± 0.41 (treatment: MLN4924 1 uM, 8 h).

Turning to RHQSIFKSNGFFHGISIPEPEDME [CDKL4], the protein stability index by setting is: (treatment: DMSO) 3.58 ± 0.27; (treatment: MLN4924 1 uM, 8 h) 3.87 ± 0.15.

Regarding RIFDIKDGKLLWEQELYNNFVYNS [WASL], the protein stability index is, setting by setting: (treatment: DMSO) 2.15 ± 0.67; (treatment: MLN4924 1 uM, 8 h) 2.13 ± 0.62.

With RIHERLVAGSLAGAIAQSSIYPME [SLC25A25], the protein stability index stood at 2.74 ± 0.52 (treatment: DMSO) and 2.56 ± 0.27 (treatment: MLN4924 1 uM, 8 h).

As to RILLRMTLGREVMSPLQAMSSYTV [NLN], the protein stability index runs as follows: (treatment: DMSO) 2.67 ± 1.1; (treatment: MLN4924 1 uM, 8 h) 2.45 ± 0.32.

RINLVAAIFSAPAFPAAVSSMKKF [PSD2]: the protein stability index reads like this: (treatment: DMSO) 2.37 ± 0.46; (treatment: MLN4924 1 uM, 8 h) 2.27 ± 0.59.

Sequence RIQTQKEQAKENENGELQKIILPR [ZC2HC1C] registered a protein stability index (treatment: DMSO) of 4.77 ± 0.21 and a protein stability index (treatment: MLN4924 1 uM, 8 h) of 4.51 ± 0.41.

As to RKISSLSFTLEEEEEGGEEEEEAA [FAM50A], the protein stability index reads like this: (treatment: DMSO) 5.53 ± 0.26; (treatment: MLN4924 1 uM, 8 h) 5.33 ± 0.26.

RKKSADVLALADEAGYYFFNGNYK [ADAMTSL2] returned a protein stability index (treatment: DMSO) of 3 ± 0.22 and a protein stability index (treatment: MLN4924 1 uM, 8 h) of 3.05 ± 0.33.

Take RKLLSPVSREENREDKATIKCETS [PPFIA4]: the protein stability index is 5.11 ± 0.27 (treatment: DMSO) and 5.14 ± 0.26 (treatment: MLN4924 1 uM, 8 h).
